Measurements: the nanobody polyreactivity screen of Harvey et al. (2022)

Assay: yeast display, Sf9 membrane polyspecificity reagent, FACS + sequencing; frameworks hold sequencing errors
Summary of the method: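 A nanobody's polyreactivity label depends on the gate it was sorted from. Yeast display cells were stained with 10% biotinylated, detergent-solubilized Sf9 membrane reagent for 1 hour at 4 °C, enriched on streptavidin microbeads and sorted by FACS. The low and high (top ~1%) gates were set on anti-HA fluorescence for expression and streptavidin fluorescence for reagent binding.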

| Sequence | polyreactivity (PSR sort gate) |
| --- | --- |
| QVQLVESGGGLVQAGGSLRLSCAASGRIFGPYAMGWDRQAPGKERELVAAITWRGDRTYYADSVKGRFTISRDNPKNTVYLQMNSLKPEDTAVYYCAARGGRSEYDYWGQGTQVTVSS | low polyreactivity |
| QVQLVESGGRLVQAGGSLRLSCAASGFTFRYYAMGWYRQAPGKERELVAAINSGGSTNFADSVKGRFTISRDNAKNTVYLQMNSLKPEDTAVYYCAKRGRRGIVYLGSAEMDYWGQGTQVTVSS | low polyreactivity |
| QVQLVESGGGLVQAGGSLRLSCAASGFTFDFNAMGWSRQAPGKERELVAAISSGASTNYADSVKGRFTISRDNAKNTVYLQMNSLKPEDTAVYYCAARSRTPGWYSTISRKMYWGQGTQVTVSS | high polyreactivity |
| QVQLVESGGGLVQAGGSLRLSCAASGRIFSAYAMGWYRQAPGKERELVAAISKRGGRTYYADSVKGRFTISRDNAKNTVYLQMNSLKPEDTAVYYCNKRYHDGHELDYWGQGTQVTVSS | high polyreactivity |
| QVQLVESGGGLVQAGGSLRLSCAASGFIFWYYAMGWYRQSPGTERELVAGITSGGSTNYADSVKGRFTISRDNAKNTVYLQMNSLKPEDTAVYYCAAAPYGGFGRGYDYWGQGTQVTVSS | high polyreactivity |
| QLQLVESGGGLVQAGGSLRLSCAPSGRTFVGNAMGWYRQAPGKERELVAAITLSDGSTYYADSVKGRFTISRDNAKNTVYLQMNSLKPEDTAVYYCATQPLYWYDVVVNIRGPSGYWGQGTQVTVSS | low polyreactivity |
| QVQLVESGGGLVQAGGSLRLSCAASGITFDEYAMGWYRQAPGKERELVAVISRSGGTTYYADSVKGRFTISRDNAKNTVYLQMNSLKPEDTAVYYCNARRWGPPGYYWGQGTQVTVSS | high polyreactivity |
| QVQLVESGGGLVQAGGSLRLSCAASGSIFGANAMGWYRQAPGKERELVAAISTRGGRTYYADSVKARFTISRDNAKNTVSLQMNSLKPEDTALYYCAARRFSKVRSMYYWRQGTQVTVSS | high polyreactivity |
| QVQLVESGGGLVQAGGSLRLSCAGSGSIFGLYAMGWYRQEPGKERELVAAINQSGGSTSYADSVKGRFTISRDNAKNTVYFQMNSLKPEDTAVYYCNRVRLNTEGFDYWGQGTQVTVSS | low polyreactivity |
| QVQLVESGGGLVQAGGSLRLSCAASGITFPLYVMGWSRQAPGKERELVAAISASGGSTYADSVKGRFTISRDNAKNTVYLQMNSLKPEDTAVYYCNADVYVGYEYDYWGQGTQVTVSS | low polyreactivity |
| QVQLVESGGGLVQAGGSLRISSAASGRMLYSYAMGWYRQAPGKESEFVAAIRRSGGSTYYADSVKGRFTISRDNAKNTVYLQMNSLKPEDTAFYYCAAGRRYSGSYDYWGQGTQVTVSS | high polyreactivity |
| QVQLVESGGGLVQAGGSLRLSCAASGSIFTRYAMGWYRQAPGKERELVAAISTSGGSTYYADSVKGRFTISRDNAKNTVYLQMNSLKPEDTAVYYCAADDQRRSGYYSWGQGTQVTVSS | high polyreactivity |
| QVQLVESGGGLVQAGGSLRLSCAASGRIFWYYAMGWYRQAPGKERELVAAITRSGASTYYADSVKGRFTISRDNAKNTVYLQMNSLKREDTAVYYCAADTGRYRYVYEYYYWGLGTQVTVSS | high polyreactivity |
| QVQLVESGGGLVQAGGSLRISCAASGFIFGWYAMGWYRQAPGKERELVAVIRSGGRTNYADSVKGRFTISRDNAKNTVYLQMNSLKPEDTAVYYCNAVGGRGYGGGYWGQGTQVTVSS | high polyreactivity |
| QVQLVESGGGLVQAGGTLRLSCAASGSIFRYYAMGWYRQAPGKERELVASSSRRGGSTYYADSVKGRFTISRDIANITVYGQMNSLKPEDTAVYYCAAYSYVYGERYYYWGQGSQVTVSS | high polyreactivity |
| QVQLVESGGGLVQAGGSLRLSCAASGSIFDPYAMGWYRQAPGKERELVARISRSGGSTNYADSVKGRFTISRDNAKNTVYLQMNSLKPEDTAVYYCNTPSSREMDYWGQGTQVTVSS | low polyreactivity |
| QVQLVESGGGLVQAGGSLRLSCAASGRIFTLYDMGWYRQAPGKERELVAAISNSAGSTYYADSVKGRFTISRDNAKNTVYLQMNSLKPEDTAVYYCAAELWSWWGSRDYWGQGTQVTVSS | high polyreactivity |
| QLQIVESGGGLVQAGGSLRLSCAASGSTFSYNAMGWYRQAPRKQRELVASISTSGGSTYYADSVKGRFTISRDNANNTVYLEMNSLKPEDTAVYYCNAPTSDIYSDFDSWGQGTQVTVSS | low polyreactivity |
| QVQLVESGGGLVQAGGSLRLSCAASGFTFEDNTMGWYRQAPGKERELVAAITWGGVSTYYADSVKGRFTISRDNAKNTVYLQMNSLKPEDTAVYYCAAEEQVVKAHGDYWGQGTQVTVSS | low polyreactivity |
| QGQRVESGGGLVQAGGSLRLTCAPSGRTFTGYAMGWYRQATGKARELVAGINWSTGSTYYADSVKGRFTISRDNAKNTVYLQMNSLKPEDTAVYYCAAGYYYYGNGRIVQYEYWGQGTQVTVSS | high polyreactivity |
| QVQRVESGGGLFQAGRSLRLSCAASGSTIRRYAMGWYRQAPGKERELVAAMSRGGNTNYADSVKGRFTISRDNATNTVYLQMNCLKPEDTAVYYCAAKLYGGWYRDFAACGMDYWGQGTQVTVCS | high polyreactivity |
| QVQLVESGGGLVQAGGSLRLSCAASGSTFAIYAMGLYRQAPGKERELVAAITRSGGNTYYAESVKGRFTISRDNAKNTVYLQMNSLKPEDTAVYYCNAETYYWSAYAQYEYWGQGTQVTVSS | high polyreactivity |
| QVQLVESGGGLVQAGGSLRLSCAASGRTFWYYPMGGYRQEPGKERELVAAITRGTSTYADSVKGRFTISRDNAKTTVYLQMNSLKPEDTAVDYCAADTWGTRNSRYDYWGQGTQVTVSS | high polyreactivity |
| QVQLVESGGGLVQAGGSLRLSCASSGRTFTKYAMGWYRHPPGKESELVAAISRSGGSTYYADSVKGRFTISRDNAKNTVYLQMNSLKPEDTAVYYWAARGQYRYSFGDYSWGQGTQVTVSS | high polyreactivity |
| QDQLVESGGGLVQAGASRRLRCAASGSIFGRNTMGWYRQAPGKESELVAAISSGGRTYYADSVKGRFTISRDNAKYTVFLQMNSLKPEDTAVYYCAAALRRRRADFDYWGQGTQVTVSS | high polyreactivity |
| QVQLVESGGGLVQAGGRLRLSCTASGRPLYNYTMGWYRQAPGKERELVATINFSGGSTYYADSVKGRFTISRDNAKNTVYLQMNSLKQEDTAVYYCTARGYHYAYKGAYLGDDYWGQGTQVTVSS | low polyreactivity |
| QVQLVESAGGLVQAGGSLRLICAASGRIFYLNAMGWYRQAPGKESELVAAINTSCGSTYADSVKWRFTISRDNAKNTVYLQMNSLKPEDTAVYYCNAYLAEVLPLGKGRLYDYWGQGTQVTVSS | low polyreactivity |
| QVQLVESGGGLVQAGGSLRLSCAASGRTFGKYAMGWYSQAPGKERELVAAISSGGTTYYADSVKGRFTISRDNAKNTVYLQMNSVIPEDTAVYYCAADPRYPYNYWGQGTQVTVSS | low polyreactivity |
| QVQLEESGGGLVQAGGSLRLSCAASGSIFRYYAMGWYRQAPGKERELVAVITRGGSTYYADSVKGRFTISRDNAKNTVYLQMNSLKPEDTAVYYCAADYWPAGLDRGYWGQGTQVTVSS | low polyreactivity |
| QVQLVESGGGLVQAGGSLRLSCAASGRIFWYYAMGWYRQAPGKERELVAAITRGGITTYADSVKGRYTISRDNAKNTVYLQMNSLKPEDTAVYYCNAVPWYGRMDYWGQGTQVTVSS | low polyreactivity |
